# From patent US20140087995A1 (published 2014)
# Numbered stars: 1 amine (or outer) side, 2 acyl side, 3 side chain; on linkers, the order of the positions; unused ones are H or OH. Bridge positions count the residues as written; N and C are the ends. Side chains are listed from the residue outwards. Ends that are not written are not given here. * marks the point of attachment. C20 diacid = O=C(O)CCCCCCCCCCCCCCCCCCC(=O)*; γGlu = O=C(O)[C@H](CCC(=O)[*:2])N[*:1]; AEEA = NCCOCCOCC(=O)O
# Legend:
# rat calcitonin receptor [1] = biological target: T1, rat calcitonin receptor (rat, UniProt P32214 25-516); test: ratio of binding IC50 at rat calcitonin receptor to IC50 at rat amylin receptor (reference)
# T1 construct: whole, on cells; Used as membranes prepared from the transfected cells; also called rCTR; rCT
# T1 sequence (looked up): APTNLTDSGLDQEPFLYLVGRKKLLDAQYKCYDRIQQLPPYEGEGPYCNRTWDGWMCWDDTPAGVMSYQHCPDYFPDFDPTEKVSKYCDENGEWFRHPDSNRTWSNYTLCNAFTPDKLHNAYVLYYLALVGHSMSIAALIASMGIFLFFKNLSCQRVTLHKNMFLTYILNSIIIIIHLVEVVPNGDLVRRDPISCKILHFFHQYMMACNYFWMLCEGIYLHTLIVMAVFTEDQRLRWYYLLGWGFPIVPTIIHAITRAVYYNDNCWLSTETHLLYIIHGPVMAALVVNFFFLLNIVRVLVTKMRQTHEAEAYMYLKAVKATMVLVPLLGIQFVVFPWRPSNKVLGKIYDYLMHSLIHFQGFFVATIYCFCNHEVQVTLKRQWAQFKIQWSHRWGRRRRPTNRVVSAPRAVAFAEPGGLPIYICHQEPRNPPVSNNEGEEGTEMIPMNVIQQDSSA
# [2] = biological target: T2, rat amylin receptor (rat calcitonin receptor with rat RAMP 3) (rat, UniProt P32214 25-516; Q9JJ73 23-147); test: SPA competition with 125I-rat amylin, membranes with rat calcitonin receptor + rat RAMP3 (Assay VI)
# T2 construct: whole, on cells; Used as membranes prepared from the transfected cells; also called rAmylin-R; rAmylin
# T2 sequence (looked up) 1: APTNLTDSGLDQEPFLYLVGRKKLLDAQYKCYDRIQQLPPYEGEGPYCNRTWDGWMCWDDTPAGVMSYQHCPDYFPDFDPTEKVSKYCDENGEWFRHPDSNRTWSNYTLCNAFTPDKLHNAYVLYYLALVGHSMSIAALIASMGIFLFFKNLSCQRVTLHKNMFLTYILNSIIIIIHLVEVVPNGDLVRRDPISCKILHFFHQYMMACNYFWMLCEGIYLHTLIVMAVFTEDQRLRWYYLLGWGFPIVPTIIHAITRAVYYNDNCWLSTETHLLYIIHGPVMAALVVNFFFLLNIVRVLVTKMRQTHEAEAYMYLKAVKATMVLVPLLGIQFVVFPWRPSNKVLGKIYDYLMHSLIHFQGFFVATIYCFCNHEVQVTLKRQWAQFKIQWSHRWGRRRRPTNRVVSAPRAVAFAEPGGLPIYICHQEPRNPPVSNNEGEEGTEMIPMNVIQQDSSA
# T2 sequence (looked up) 2: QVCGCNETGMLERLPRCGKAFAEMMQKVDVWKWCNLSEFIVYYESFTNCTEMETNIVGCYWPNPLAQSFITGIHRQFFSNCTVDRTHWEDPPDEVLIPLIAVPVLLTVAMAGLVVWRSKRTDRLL
# rat calcitonin receptor [3] = biological target: T1, rat calcitonin receptor; test: SPA competition with 125I-calcitonin, membranes with rat calcitonin receptor (Assay VIII)
# [4] = biological target: T3, human calcitonin receptor (human, UniProt P30988 25-474); test: ratio of binding IC50 at human calcitonin receptor to IC50 at human amylin receptor (reference)
# T3 construct: whole, on cells; Used as membranes prepared from the transfected cells; also called hCTR; hCT
# T3 sequence (looked up): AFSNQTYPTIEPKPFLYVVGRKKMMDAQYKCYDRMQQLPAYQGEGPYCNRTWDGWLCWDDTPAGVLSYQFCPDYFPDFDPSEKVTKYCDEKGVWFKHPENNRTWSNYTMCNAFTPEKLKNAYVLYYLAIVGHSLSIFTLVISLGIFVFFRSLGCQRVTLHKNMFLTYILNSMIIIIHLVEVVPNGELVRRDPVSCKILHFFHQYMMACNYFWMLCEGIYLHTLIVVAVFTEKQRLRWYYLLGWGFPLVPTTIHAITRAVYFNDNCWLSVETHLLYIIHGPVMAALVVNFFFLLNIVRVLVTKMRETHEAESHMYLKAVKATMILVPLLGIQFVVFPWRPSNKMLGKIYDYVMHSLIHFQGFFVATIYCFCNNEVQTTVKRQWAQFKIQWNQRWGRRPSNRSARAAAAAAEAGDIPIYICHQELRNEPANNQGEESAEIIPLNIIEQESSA
# Procedure, shortened: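 Competition binding by SPA uses membrane preparations (35 ng/μL final) in pH 7.4 Hepes buffer with 1 mM CaCl2 and 5 mM MgCl₂. Incubation lasts 120 min at 25° C, and IC₅₀ comes from one-site fitting.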
# [5] = biological target: T4, human calcitonin receptor (human, UniProt P30988 25-474); test: cell-based or functional assay
# T4 sequence (looked up): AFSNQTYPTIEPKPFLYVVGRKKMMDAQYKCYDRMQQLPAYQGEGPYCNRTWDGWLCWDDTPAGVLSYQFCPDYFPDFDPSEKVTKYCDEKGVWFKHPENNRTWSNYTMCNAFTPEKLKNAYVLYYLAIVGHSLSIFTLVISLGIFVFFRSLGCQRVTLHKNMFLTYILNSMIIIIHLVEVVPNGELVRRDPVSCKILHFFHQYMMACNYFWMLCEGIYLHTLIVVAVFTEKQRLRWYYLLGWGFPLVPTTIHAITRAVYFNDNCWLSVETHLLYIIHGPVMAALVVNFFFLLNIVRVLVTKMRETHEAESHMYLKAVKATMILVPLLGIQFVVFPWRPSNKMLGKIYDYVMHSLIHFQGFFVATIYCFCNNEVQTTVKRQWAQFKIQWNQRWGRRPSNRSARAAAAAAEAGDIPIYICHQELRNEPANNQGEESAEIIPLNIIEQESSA
Binder,Ratio rCT/rAmylin binding (rat calcitonin receptor [1]),IC50 [2] [nM],IC50 (rat calcitonin receptor [3]) [nM],Ratio hCT/hAmylin binding [4],Ratio hCT/hAmylin funct. [5]
"K([γGlu-C20 diacid])CNTATCATQRLAHFLRHSSPNFGAIPSSTNVGPNTY-NH2 (disulfide 2-7; N-terminus assumed; SMILES CC[C@H](C)[C@H](NC(=O)[C@H](C)NC(=O)CNC(=O)[C@H](Cc1ccccc1)NC(=O)[C@H](CC(N)=O)NC(=O)[C@@H]1CCCN1C(=O)[C@H](CO)NC(=O)[C@H](CO)NC(=O)[C@H](Cc1c[nH]cn1)NC(=O)[C@H](CCCNC(=N)N)NC(=O)[C@H](CC(C)C)NC(=O)[C@H](Cc1ccccc1)NC(=O)[C@H](Cc1c[nH]cn1)NC(=O)[C@H](C)NC(=O)[C@H](CC(C)C)NC(=O)[C@H](CCCNC(=N)N)NC(=O)[C@H](CCC(N)=O)NC(=O)[C@@H](NC(=O)[C@H](C)NC(=O)[C@@H]1CSSC[C@H](NC(=O)[C@@H](N)CCCCNC(=O)CC[C@H](NC(=O)CCCCCCCCCCCCCCCCCCC(=O)O)C(=O)O)C(=O)N[C@@H](CC(N)=O)C(=O)N[C@@H]([C@@H](C)O)C(=O)N[C@@H](C)C(=O)N[C@@H]([C@@H](C)O)C(=O)N1)[C@@H](C)O)C(=O)N1CCC[C@H]1C(=O)N[C@@H](CO)C(=O)N[C@@H](CO)C(=O)N[C@H](C(=O)N[C@@H](CC(N)=O)C(=O)N[C@H](C(=O)NCC(=O)N1CCC[C@H]1C(=O)N[C@@H](CC(N)=O)C(=O)N[C@H](C(=O)N[C@@H](Cc1ccc(O)cc1)C(N)=O)[C@@H](C)O)C(C)C)[C@@H](C)O, Analogue of human amylin; disulfide and C-terminal amide as told for h-amylin; also called compound 67)",85.4,0.172,14.7,51.6,–
"K([AEEA-γGlu-C20 diacid])CNTATCATQRLAHFLRHSSPNFGAIPSSTNVGHNTY-NH2 (disulfide 2-7; N-terminus assumed; SMILES CC[C@H](C)[C@H](NC(=O)[C@H](C)NC(=O)CNC(=O)[C@H](Cc1ccccc1)NC(=O)[C@H](CC(N)=O)NC(=O)[C@@H]1CCCN1C(=O)[C@H](CO)NC(=O)[C@H](CO)NC(=O)[C@H](Cc1c[nH]cn1)NC(=O)[C@H](CCCNC(=N)N)NC(=O)[C@H](CC(C)C)NC(=O)[C@H](Cc1ccccc1)NC(=O)[C@H](Cc1c[nH]cn1)NC(=O)[C@H](C)NC(=O)[C@H](CC(C)C)NC(=O)[C@H](CCCNC(=N)N)NC(=O)[C@H](CCC(N)=O)NC(=O)[C@@H](NC(=O)[C@H](C)NC(=O)[C@@H]1CSSC[C@H](NC(=O)[C@@H](N)CCCCNC(=O)COCCOCCNC(=O)CC[C@H](NC(=O)CCCCCCCCCCCCCCCCCCC(=O)O)C(=O)O)C(=O)N[C@@H](CC(N)=O)C(=O)N[C@@H]([C@@H](C)O)C(=O)N[C@@H](C)C(=O)N[C@@H]([C@@H](C)O)C(=O)N1)[C@@H](C)O)C(=O)N1CCC[C@H]1C(=O)N[C@@H](CO)C(=O)N[C@@H](CO)C(=O)N[C@H](C(=O)N[C@@H](CC(N)=O)C(=O)N[C@H](C(=O)NCC(=O)N[C@@H](Cc1c[nH]cn1)C(=O)N[C@@H](CC(N)=O)C(=O)N[C@H](C(=O)N[C@@H](Cc1ccc(O)cc1)C(N)=O)[C@@H](C)O)C(C)C)[C@@H](C)O, Synthetic acylated analogue of human amylin; also called compound 80)",–,–,–,–,15.4
"{C20 diacid-γGlu}-GRCNTATCATQRLAHFLRHSSPNFGAIPSSTNVGHNTY-NH2 (disulfide 3-8; SMILES CC[C@H](C)[C@H](NC(=O)[C@H](C)NC(=O)CNC(=O)[C@H](Cc1ccccc1)NC(=O)[C@H](CC(N)=O)NC(=O)[C@@H]1CCCN1C(=O)[C@H](CO)NC(=O)[C@H](CO)NC(=O)[C@H](Cc1c[nH]cn1)NC(=O)[C@H](CCCNC(=N)N)NC(=O)[C@H](CC(C)C)NC(=O)[C@H](Cc1ccccc1)NC(=O)[C@H](Cc1c[nH]cn1)NC(=O)[C@H](C)NC(=O)[C@H](CC(C)C)NC(=O)[C@H](CCCNC(=N)N)NC(=O)[C@H](CCC(N)=O)NC(=O)[C@@H](NC(=O)[C@H](C)NC(=O)[C@@H]1CSSC[C@H](NC(=O)[C@H](CCCNC(=N)N)NC(=O)CNC(=O)CC[C@H](NC(=O)CCCCCCCCCCCCCCCCCCC(=O)O)C(=O)O)C(=O)N[C@@H](CC(N)=O)C(=O)N[C@@H]([C@@H](C)O)C(=O)N[C@@H](C)C(=O)N[C@@H]([C@@H](C)O)C(=O)N1)[C@@H](C)O)C(=O)N1CCC[C@H]1C(=O)N[C@@H](CO)C(=O)N[C@@H](CO)C(=O)N[C@H](C(=O)N[C@@H](CC(N)=O)C(=O)N[C@H](C(=O)NCC(=O)N[C@@H](Cc1c[nH]cn1)C(=O)N[C@@H](CC(N)=O)C(=O)N[C@H](C(=O)N[C@@H](Cc1ccc(O)cc1)C(N)=O)[C@@H](C)O)C(C)C)[C@@H](C)O, Analogue of human amylin extended by Gly at the N-terminus; disulfide and C-terminal amide as told for h-amylin; also called compound 100)",27.7,11.2,311,65.3,–
"{C20 diacid-γGlu}-GRCNTATCATQRLAAFLRHSSPNFGAIPSSTNVGHNTY-NH2 (disulfide 3-8; SMILES CC[C@H](C)[C@H](NC(=O)[C@H](C)NC(=O)CNC(=O)[C@H](Cc1ccccc1)NC(=O)[C@H](CC(N)=O)NC(=O)[C@@H]1CCCN1C(=O)[C@H](CO)NC(=O)[C@H](CO)NC(=O)[C@H](Cc1c[nH]cn1)NC(=O)[C@H](CCCNC(=N)N)NC(=O)[C@H](CC(C)C)NC(=O)[C@H](Cc1ccccc1)NC(=O)[C@H](C)NC(=O)[C@H](C)NC(=O)[C@H](CC(C)C)NC(=O)[C@H](CCCNC(=N)N)NC(=O)[C@H](CCC(N)=O)NC(=O)[C@@H](NC(=O)[C@H](C)NC(=O)[C@@H]1CSSC[C@H](NC(=O)[C@H](CCCNC(=N)N)NC(=O)CNC(=O)CC[C@H](NC(=O)CCCCCCCCCCCCCCCCCCC(=O)O)C(=O)O)C(=O)N[C@@H](CC(N)=O)C(=O)N[C@@H]([C@@H](C)O)C(=O)N[C@@H](C)C(=O)N[C@@H]([C@@H](C)O)C(=O)N1)[C@@H](C)O)C(=O)N1CCC[C@H]1C(=O)N[C@@H](CO)C(=O)N[C@@H](CO)C(=O)N[C@H](C(=O)N[C@@H](CC(N)=O)C(=O)N[C@H](C(=O)NCC(=O)N[C@@H](Cc1c[nH]cn1)C(=O)N[C@@H](CC(N)=O)C(=O)N[C@H](C(=O)N[C@@H](Cc1ccc(O)cc1)C(N)=O)[C@@H](C)O)C(C)C)[C@@H](C)O, Analogue of human amylin extended by Gly at the N-terminus; disulfide and C-terminal amide as told for h-amylin)",60.9,8.07,492,68.6,–
"{C20 diacid-γGlu}-GRCNTATCATQRLAHFLRHSSPNFGAIPSSTNVGSNTY-NH2 (disulfide 3-8; SMILES CC[C@H](C)[C@H](NC(=O)[C@H](C)NC(=O)CNC(=O)[C@H](Cc1ccccc1)NC(=O)[C@H](CC(N)=O)NC(=O)[C@@H]1CCCN1C(=O)[C@H](CO)NC(=O)[C@H](CO)NC(=O)[C@H](Cc1c[nH]cn1)NC(=O)[C@H](CCCNC(=N)N)NC(=O)[C@H](CC(C)C)NC(=O)[C@H](Cc1ccccc1)NC(=O)[C@H](Cc1c[nH]cn1)NC(=O)[C@H](C)NC(=O)[C@H](CC(C)C)NC(=O)[C@H](CCCNC(=N)N)NC(=O)[C@H](CCC(N)=O)NC(=O)[C@@H](NC(=O)[C@H](C)NC(=O)[C@@H]1CSSC[C@H](NC(=O)[C@H](CCCNC(=N)N)NC(=O)CNC(=O)CC[C@H](NC(=O)CCCCCCCCCCCCCCCCCCC(=O)O)C(=O)O)C(=O)N[C@@H](CC(N)=O)C(=O)N[C@@H]([C@@H](C)O)C(=O)N[C@@H](C)C(=O)N[C@@H]([C@@H](C)O)C(=O)N1)[C@@H](C)O)C(=O)N1CCC[C@H]1C(=O)N[C@@H](CO)C(=O)N[C@@H](CO)C(=O)N[C@H](C(=O)N[C@@H](CC(N)=O)C(=O)N[C@H](C(=O)NCC(=O)N[C@@H](CO)C(=O)N[C@@H](CC(N)=O)C(=O)N[C@H](C(=O)N[C@@H](Cc1ccc(O)cc1)C(N)=O)[C@@H](C)O)C(C)C)[C@@H](C)O, Analogue of human amylin extended by Gly at the N-terminus; disulfide and C-terminal amide as told for h-amylin; also called compound 99)",79.8,2.7,216,100,–
